Molecular target: T1, phospholipase A2 (PLA2) from cobra venom (cobra, UniProt P60045 8-126)
T1 construct: source: purified to homogeneity from cobra venom
Assay: enzyme kinetic studies (competitive); kinetic studies; the peptide binds to PLA2 in a competitive manner; no conditions told
Settings: both partners purified

T1 sequence (P60045 8-126): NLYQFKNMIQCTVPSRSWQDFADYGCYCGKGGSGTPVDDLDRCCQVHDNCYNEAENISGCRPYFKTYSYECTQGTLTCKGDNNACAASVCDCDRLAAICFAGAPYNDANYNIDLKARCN

B1: Aβ(36-42) C-terminal heptapeptide Val-Gly-Gly-Val-Val-Ile-Ala (peptide)
peptide: VGGVVIA
notes: C-terminal heptapeptide of the Aβ polypeptide of Alzheimer's disease, residues 36-42; numbers count on: the Aβ peptide; also called VGGVVIA; Aβ_(36-42) peptide
Ki: 520 nM
